Data reported in article PMC6212398, “Competing protein-protein interactions regulate binding of Hsp27 to its client protein tau” (Nature Communications, 2018).

Columns and labels:
Hsp27 ΔNTD GPG (human) = Hsp27 ΔNTD GPG (human) (UniProt P04792); assay: ITC; peptide (1 mM) titrated into a cell with Hsp27 proteins (100 µM); SEC buffer (50 mM sodium phosphate, 100 mM NaCl); 25 °C; one-site binding model
[1] = target: Hsp27 GPG (isoleucine and valine of the IPV motif mutated to glycine) (human) (UniProt P04792); assay: as above

B1: Hsp27 IPV H peptide (…) (peptide)
peptide: EITIPVTHE
B1 was tested, and the Kd (Hsp27 ΔNTD GPG (human)) was 14.3 µM, the Kd [1] was 10 µM and the stoichiometry N [1] was 0.2.
